The values that follow come from the RNAGym collection of RNA variant scans (doi:10.7554/elife.80360).

B1: CPEB3 Ribozyme (parent)
chain: GGGGGCCACAGCAGAAGCGUUCACGUCGCGGCCCCUGUCAGAUUCUGGUGAAUCUGCGAAUUCUGCUGU

This data set covers variants of B1. The data set is described as follows: self-cleavage, relative activity (ratio to wild type); higher = more cleavage; co-transcriptional.
Turning to C35U C45A, the self-cleavage turned out to be 0.985. For C35U C45U, the self-cleavage came out at 0.994.

With C34U G41C, the self-cleavage was 0.729. As to C34U G41U, the self-cleavage came to 0.901. Consider C34G G65A, for which the self-cleavage stood at 0.58. To G37A A52C belongs 0.282. Consider C35G U64A, for which the self-cleavage was found to be 0.402. To U36C C45U belongs 0.926.

Take G37A C63G: the self-cleavage was determined as 0.258.

On to C35U G65C, for which the self-cleavage was determined as 0.568.

For the variant U36A A52C, the self-cleavage was found to be 0.24. As for C34G C63U, the self-cleavage came out at 0.666.

Take C34G C63A: the self-cleavage turned out to be 0.424. Take U36C C63U: the self-cleavage is 0.856. U36A G68U: the self-cleavage was determined as 0.248. To U36G U55G belongs 0.245; to U36G U55C, 0.177. Regarding G37A G68C, the self-cleavage was 0.371. Turning to C35A U67G, the self-cleavage stood at 0.288. As to C35A U67A, the self-cleavage worked out at 0.239.

In the case of C35G G48C, the self-cleavage was 0.531. To C34U C57G belongs 0.261.

Consider U36G U53A, for which the self-cleavage was 0.273. Turning to U36G U53G, the self-cleavage is 0.214. G37C G41C: the self-cleavage was found to be 0.126.

Consider G37C G41A, for which the self-cleavage is 0.245. Take C35A A52U: the self-cleavage was 0.274. For C34G U46C, the self-cleavage was 0.625. Regarding C35G C57U, the self-cleavage worked out at 0.287. As to C35U U53G, the self-cleavage is 0.636. On to C35U U53C, for which the self-cleavage worked out at 0.897. Take G37A U67C: the self-cleavage is 0.321. Regarding G37A U67G, the self-cleavage was determined as 0.334. Regarding G37C A51G, the self-cleavage was 0.205. On to G37C A59U, for which the self-cleavage came to 0.242.

Take C35U A52C: the self-cleavage was determined as 1.01. As for U36A C63A, the self-cleavage is 0.245. Consider C35U G37U, for which the self-cleavage worked out at 0.258. With C35U G37C, the self-cleavage came to 0.22. Take U36A U61A: the self-cleavage worked out at 0.137. On to U36A U61G, for which the self-cleavage stood at 0.147. Consider C35U A40C, for which the self-cleavage turned out to be 0.46.

Regarding C35U A40U, the self-cleavage was determined as 0.717. In the case of C35A G48C, the self-cleavage came to 0.281. With C35A G48A, the self-cleavage was 0.248. In the case of C35A G41C it was 0.237; in that of C35G A59C, 0.307; in that of C35G A59G, 0.488.

Regarding U36C, the self-cleavage worked out at 0.939. In the case of U36A, the self-cleavage stood at 0.25. As for U36G, the self-cleavage was determined as 0.239. Regarding G37C A52U, the self-cleavage is 0.254. In the case of U36A U62C, the self-cleavage turned out to be 0.314. As for C34G C57A, the self-cleavage came to 0.311. As for C34G C57U, the self-cleavage amounted to 0.348. For the variant C35A U69G, the self-cleavage came out at 0.356. For C34G U38C, the self-cleavage was 0.441. Consider C34G U38G, for which the self-cleavage was 0.202. In the case of G37C U38G it was 0.25; in that of C35A A40G, 0.212; in that of C35A A40C, 0.288. Consider C35A A40U, for which the self-cleavage was found to be 0.231. To G37C A60G belongs 0.237; to C34G A60C, 0.331. For the variant C34G A60U, the self-cleavage came to 0.39. To C34G A60G belongs 0.407; to C35A U38G, 0.291; to U36C A52G, 0.855. In the case of U36A G56A, the self-cleavage is 0.231. As for U36A U43C, the self-cleavage is 0.186. Take U36A U49C: the self-cleavage is 0.22. Take C34G G56C: the self-cleavage turned out to be 0.261. For C35G U36A, the self-cleavage was 0.21.

As to C35G U36C, the self-cleavage came out at 0.36. In the case of C35G U36G it was 0.189. Turning to C34U A59U, the self-cleavage is 0.778.

With C35G U38C, the self-cleavage worked out at 0.286. Regarding U36C U64A, the self-cleavage was 0.713.

With G37C G65C, the self-cleavage came to 0.255. Turning to C34U U55C, the self-cleavage turned out to be 0.823.

For the variant C35U U61C, the self-cleavage was found to be 0.625. Regarding U36C U67A, the self-cleavage was determined as 0.926. As to U36C U67C, the self-cleavage stood at 0.981. In the case of U36A U69G, the self-cleavage is 0.347. Take C35U U69A: the self-cleavage was 0.967. For the variant U36G C57U, the self-cleavage stood at 0.184. Turning to U36G C57A, the self-cleavage stood at 0.236.

For the variant C34U A52G, the self-cleavage was 1.01. With C35G G50C, the self-cleavage came to 0.401. Turning to U36A A40U, the self-cleavage was 0.191.

C34G C39U: the self-cleavage was determined as 0.439.

For C34G C39G, the self-cleavage was determined as 0.455. Consider U36G U61G, for which the self-cleavage was 0.179. With U36G U61C, the self-cleavage amounted to 0.139. In the case of C35U U55A, the self-cleavage was found to be 0.82. On to U36A A42G, for which the self-cleavage stood at 0.355.

Turning to G37A A60C, the self-cleavage worked out at 0.274. As to G37A A60U, the self-cleavage is 0.193. As for C34G G50A, the self-cleavage came out at 0.707. As to U36A G50U, the self-cleavage came out at 0.232. Regarding U36A U44A, the self-cleavage was determined as 0.177.

In the case of U36A U44G, the self-cleavage is 0.21. On to U36A G65A, for which the self-cleavage is 0.278. Turning to C34U G50U, the self-cleavage turned out to be 0.987.

Regarding U36C G65U, the self-cleavage is 0.485.

C35U U44G: the self-cleavage came to 0.835. To C34U G37A belongs 0.224; to C34U C66G, 0.95. For C34G U44A, the self-cleavage stood at 0.579. Take G37A C39G: the self-cleavage worked out at 0.277.

As for C34G C66A, the self-cleavage is 0.411. To C34G C66U belongs 0.643; to C34U C45A, 0.946; to U36C U43G, 0.662. In the case of C35A G50C, the self-cleavage is 0.252. To C35A G50A belongs 0.216; to C35G C66G, 0.437.

C35G U53A: the self-cleavage came out at 0.407.

As to U36A A59U, the self-cleavage was 0.146. On to U36A C45U, for which the self-cleavage worked out at 0.325. In the case of U36G G58U it was 0.193; in that of U36C U61G, 0.601. C35G U44G: the self-cleavage is 0.373.

In the case of C35A U44G, the self-cleavage is 0.282. In the case of C35A U44A it was 0.285; in that of U36G U38A, 0.214. On to C34U U61C, for which the self-cleavage amounted to 0.888. On to C34U G65U, for which the self-cleavage amounted to 0.824. C34U U64A: the self-cleavage is 0.974. As for G37C U46G, the self-cleavage was 0.25. Regarding G37C U46A, the self-cleavage came to 0.236. Take C35A A51U: the self-cleavage was 0.223. In the case of C34U U53A, the self-cleavage amounted to 0.975. As for G37A A42G, the self-cleavage was determined as 0.189.

As for U36A A51G, the self-cleavage turned out to be 0.249. To G37A U55G belongs 0.234; to C35G U61G, 0.296.

For the variant C35G U61C, the self-cleavage is 0.257. To G37A U69G belongs 0.538; to G37A U69A, 0.422. To U36G G48U belongs 0.196; to U36A G58A, 0.205. Regarding U36C U62C, the self-cleavage was found to be 0.528. As to U36C U46G, the self-cleavage amounted to 0.93.

With C35A U61C, the self-cleavage was found to be 0.27.

In the case of U36A U46C, the self-cleavage came out at 0.186. Take G37A C54G: the self-cleavage was 0.221. Turning to C35A U46C, the self-cleavage was 0.275.

As for C34G G68A, the self-cleavage worked out at 0.931. As to C34G U67A, the self-cleavage is 0.847. For C34G G37C, the self-cleavage worked out at 0.213. For the variant U36G A60C, the self-cleavage was 0.206. In the case of U36G A60G it was 0.209; in that of U36C G37A, 0.335; in that of C34U U38G, 0.227. Regarding C34U U38A, the self-cleavage is 0.935. To C34U U38C belongs 0.962. In the case of C35U U49A it was 0.969. In the case of C35G C39G, the self-cleavage was found to be 0.343. To C35G C39U belongs 0.263; to U36G C54G, 0.137. For the variant U36G C54A, the self-cleavage worked out at 0.186.

As to G37C G56C, the self-cleavage worked out at 0.223.

In the case of C35G C54A, the self-cleavage is 0.305.

As to C35G C54U, the self-cleavage is 0.497. Turning to G37A G41U, the self-cleavage was found to be 0.219.

With G37C C54G, the self-cleavage was found to be 0.164.
